Test results reported in the supplement of paper PMC9170038.

Test system: MS2 coat protein
Assay: apparent KD of MS2 coat protein; designed switch direction (-1 OFF switch, 1 ON switch): -1; higher = weaker reporter binding
How it was run: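 An oligonucleotide input, 200 uM small-molecule ligand, or no input was present during titration of SNAP-549-labelled MS2 coat protein, which was doubled from 0.7 or 1.5 nM to 3 µM. Designed RNA switches had been transcribed on Illumina chips by stalled E. coli RNA polymerase. Apparent KD per design is the median over clusters of curves fitted to normalised cluster fluorescence.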

[1] = input ligand: microRNA oligo, concentration not stated
[2] = Eterna round: R95, input ligand: microRNA oligo, concentration not stated
[3] = Eterna round: R95, input ligand: FMN 200 uM
[4] = Eterna round: R95, input ligand: none

| Sequence | apparent KD of MS2 coat protein (input ligand: FMN 200 uM) [nM] | apparent KD of MS2 coat protein (input ligand: none) [nM] | apparent KD of MS2 coat protein [1] [nM] | apparent KD of MS2 coat protein [2] [nM] | apparent KD of MS2 coat protein [3] [nM] | apparent KD of MS2 coat protein [4] [nM] |
| --- | --- | --- | --- | --- | --- | --- |
| CCGUGCAGGCUGCGGUCCUACAUGAGGAUCACCCAUGUGGUCCGGUGGCGUGGGUCGCCGGACUUGGCUCGUCUUGU [salish99_S_TOV1_R5_016] (Eterna round: R97, puzzle: Sensor, turn-off variant 1) | 75.1 | 86.3 |  |  |  |  |
| UGCUGACGAGGAUAUACAUGAGGAUCACCCAUGUUGGUCAAGCGACGAUAGUCGCAAUGUAGAAGGCGUCAGCA [E3/8-A2] (Eterna round: R97, puzzle: Exclusion 3) | 239 | 405 |  |  |  |  |
| AGGUGUCUCUGGAAACAUGAGGAUCACCCAUGUUGAGUUAGCGAGGAUAUCGGUAACCAUUGUUAUGAGAAGGCGCAAACCAGA [Ex NG3 #39] (Eterna round: R96, puzzle: Exclusion NG 3) | 14.8 | 25.4 | 18.3 |  |  |  |
| AGCUAGUCAGGAUAUUCUAUUAAUUACAUGAGGAUCACCCAUGUGAAUGGACAAGGGUGUGAAGAAGGGACUAGCG [Omei Ex5 A13] (Eterna round: R97, puzzle: Exclusion 5) | 394 | 2080 |  |  |  |  |
| CCCUCACAUGAGGAUCACCCAUGUCAGGAUAUUCGACGGUAAAUUGGCCGUCUUAAAGGAAGAAGGGACGUAAC [Lesoorxe] (puzzle: Exclusion 1) |  |  |  | 13 |  |  |
| GCAGUGCGAGGAUAUACAUGAGGAUCACCCAUGUGAGAAGAAUAAGUGAGGAAGAAAAGUAGAAGGCGCGUUGG [Mat - Exclusion 3 - Mod of Salish D68] (puzzle: Exclusion 3) |  |  |  | 47.4 | 71.8 | 54.6 |
| UUUUUUUGAGUAAGGAUAUGAUGCAGGAAACUGCGUCAGAAGGUACAUGAGGAUCACCCAUGUUAAUUUUGUUU [Explosion 14 - Jieux - Brourd's mod of Exclusion 4] (Eterna round: R97, puzzle: Brourd's mod of Exclusion 4) | 18.4 | 20.3 |  |  |  |  |
| UUAUACGUUGAGGAUAUGCGAAUUAGUAUAGUUGCAGAAGGCGAUACAUGAGGAUCACCCAUGUUUAUGGGCAU [LRO-Ex6-06] (puzzle: Exclusion 6) |  |  |  | 152 |  |  |
| UAUAUAUAGUAAGGAUAUGUAUUAAUUUUAUCAACAGAAGGUACUGACAUGAGGAUCACCCAUGUUUUAGUGUGGGCAUGUAGA [JMF's solution 92] (Eterna round: R96, puzzle: Exclusion NG 1) |  |  | 65.2 |  |  |  |
| GCACAUGAGGAUCACCCAUGUCAAUGGGAAUUCCUUCUUCAACAGGAUAUCCGAUGGAGAACGUCGGAGAAGGGUUCGCCAGUA [Eternabot solution 15] (Eterna round: R96, puzzle: Exclusion NG 3) | 31.4 | 25.7 | 19.5 |  |  |  |
| AUGUGCACGCUGCGGUCCUACAUGAGGAUCACCCAUGUGGUCUGGUGGCGUGGGUCGCCGGACUUGGCUCGUCUUGG [salish99_S_TOV1_R5_031] (Eterna round: R97, puzzle: Sensor, turn-off variant 1) | 15.6 | 15.9 |  |  |  |  |
| CUCGUGUCGGAGGAUAUCCAGCGCGAAAAUAAAGGAGAAGGCCGCACAUGAGGAUCACCCAUGUAACAUGGUCC [Onbier] (puzzle: Exclusion 6) |  |  |  | 44.8 |  |  |
| AGUGUGUGGCAGGAUAUGCAAUUUAUAGGUGAAGCAGAAGGGUCUACAUGAGGAUCACCCAUGUGUGCGGUUGA [Ex6 #20] (Eterna round: R97, puzzle: Exclusion 6) | 600 | 188 |  |  |  |  |
| GUUAGUUAAGGAUAUACAGGGAGCUGCGGCGUCUCGCCGCAACAUGAGGAUCACCCAUGUAGAAGGUAGCCGUU [JL ViennaUCT Enbibi mod 8] (puzzle: Exclusion 2) |  |  |  | 53.2 |  |  |
| AAACCCUGAGGAUAUACAUAACAACAAAGCCUCACAUGCCAACAUGAGGAUCACCCAUGUAGAAGGCAGGCCAA [Mod R3 Insanara 13 - Jieux - Exclusion 2] (Eterna round: R97, puzzle: Exclusion 2) | 19.2 | 10.1 |  |  |  |  |
| UGUAACCUGGUAAGGAUAUAGUUGCAAGGAGUCAACUAGAAGGUACAUGAGGAUCACCCAUGUCUACGGAUAUC [Eternabot (L2) Solution 91] (Eterna round: R97, puzzle: Brourd's mod of Exclusion 4) | 20.6 | 17.3 |  |  |  |  |
| AGAGUGCUGCGAGGAUAUACAUGAGGAUCACCCAUGUAUUAGUGUGAGGCUUUGCCUCACACAAUGUAGAAGGCGCAGUACUCA [Mat - Exclusion NG 2 - Mod of JL - D8] (Eterna round: R96, puzzle: Exclusion NG 2) | 6.8 | 12.4 | 11.1 |  |  |  |

| Sequence | apparent KD of MS2 coat protein (input ligand: FMN 200 uM) [nM] | apparent KD of MS2 coat protein (input ligand: none) [nM] | apparent KD of MS2 coat protein [1] [nM] | apparent KD of MS2 coat protein [2] [nM] | apparent KD of MS2 coat protein [3] [nM] | apparent KD of MS2 coat protein [4] [nM] |
| --- | --- | --- | --- | --- | --- | --- |
| AGUUGGCGAGGAUAUACAUGAGGAUCACCCAUGUGAGAGAAAAAAGUGAGGAAGAAAAGUAGAAGGCGCUGACA [salish99_ex3_r3_038] (puzzle: Exclusion 3) |  |  |  | 48.3 | 318 | 77.3 |
| UUAAUACAUGUAGGAUAUGCGUGGCGAAGCUAUGCAGAAGGACAUGAGGAUCACCCAUGUUCUUGCGUCCGCGUACGGAUGCAA [JL Eng1 1.21 mod 4] (Eterna round: R96, puzzle: Exclusion NG 1) | 29.4 | 15.2 | 10.2 |  |  |  |
| GUCGAGUGAGGAUAUGGUGAGUAGUGCCAGAGCGCUGCUCACCAGAAGGCACAUGAGGAUCACCCAUGUAUGUC [Mat - Exclusion 4 - Mod of JL - D10] (puzzle: Exclusion 4) |  |  |  | 12.3 |  |  |
| AAUAACAGAGGAUAUACUGUUUUAUGUGUUUAUUGUUUUGAACAUGAGGAUCACCCAUGUAGAAGGCUGAAUGA [JMF 66] (puzzle: Exclusion 2) |  |  |  | 23 |  |  |
| AACAUGUAAGGAUAUAAAAGAAGGAGUACAAAGCCCUCCUAUUAGAAGGUACAUGAGGAUCACCCAUGUGGCGG [Eternabot (L2) Solution 96] (Eterna round: R97, puzzle: Exclusion 4) | 336 | 57.1 |  |  |  |  |
| CACCGUUACAGAGGAUAUGGUACAUGAGGAUCACCCAUGUAAUAAAUGAGAAUUUCGGAUGUAUUCCAGAAGGCUGUAAUCGGC [Ostricism 65 - Jieux - Exclusion NG 2] (Eterna round: R96, puzzle: Exclusion NG 2) | 74.9 | 53.5 | 34.1 |  |  |  |
| GUGAAACAUGAGGAUCACCCAUGUGAGGAUAUGAUUAAGUAAUGAUGAAAGUAUAUAUUCAGAAGGCACAAUGG [Mat - Mod of JL D73] (puzzle: Exclusion 1) |  |  |  | 83.3 | 132 | 152 |
| UUAAAUCAUGUAGGAUAUGCGUGGCGAAGCUAUGCAGAAGGACAUGAGGAUCACCCAUGUGCUUGCGUCUGAGUACAGAUGCUA [Mat - Exclusion NG 1 - Mod of JL - D4] (Eterna round: R96, puzzle: Exclusion NG 1) | 86.4 | 117 | 74 |  |  |  |
| AGUUAAGCAGGAUAUAUCCGGGAUAACAUGAGGAUCACCCAUGUGACCGCUUGAUAUCCUAUAGAAGGGCUUAAGA [Mod of ViennaUCT 25 - Jieux - Exclusion 5] (Eterna round: R97, puzzle: Exclusion 5) | 68.2 | 27.4 |  |  |  |  |
| UUAAAUCAUGUAGGAUAUGCUUUGCGAAGCGAGGCAGAAGGACAUGAGGAUCACCCAUGUGCUAGCGUCCGAGAACGGAUGCAA [Mat - Exclusion NG 1 - Mod of JL - D63] (Eterna round: R96, puzzle: Exclusion NG 1) | 149 | 79.6 | 51.8 |  |  |  |
| CAUACUCAAGUCAGGAUAUACAGUCGAAUACGGGUGUAGAAGGGACAUGAGGAUCACCCAUGUAGAGAGUAAAG [EX-4 Malc #22] (puzzle: Brourd's mod of Exclusion 4) |  |  |  | 33 | 122 | 36.1 |
| GUUAAACAUGAGGAUCACCCAUGUAAGGAUAUGCUGCGGUCGCGCUGACGUGACUGCAGCAGAAGGUACAAUUG [Mat - Mod of JL D51] (puzzle: Exclusion 1) |  |  |  | 64.8 |  |  |
| GAUUAACAUGAGGAUCACCCAUGUGAGGAUAUGGACUUGCUCACUUUCCGAUUCGAGUCUAGAAGGCGCAUCUU [1986#116] (Eterna round: R97, puzzle: Exclusion 1) | 30.6 | 27.1 |  |  |  |  |
| GUGUGCAGACGGAGAUCCUACAUGAGGAUCACCCAUGUCUCACUAGCUUUUUGCUCGUCUUAUCCUCCUCUGUUCUC [Elimod 26 - Jieux - Sensor, turn-off variant 1] (Eterna round: R97, puzzle: Sensor, turn-off variant 1) | 295 | 497 |  |  |  |  |
| UAUUAAACAAGCAGAUCCCACAUGAGGAUCACCCAUGUGCUCGUCUUAUAAGGUACUGUGACGAGAGUCACGGUACC [Mat - Sensor, turn-off var - Eli Mod - D63] (Eterna round: R97, puzzle: Sensor, turn-off variant 1) | 42.5 | 45.2 |  |  |  |  |
| UAUCAGCAAGUGAGGAUAUAGAGAACGGUUGUUGGCUAGAAGGCACUUGAGGAUCACCCAAGUCGCAAAGUGGC [Mamausonbe] (Eterna round: R97, puzzle: Brourd's mod of Exclusion 4) | 134 | 29.3 |  |  |  |  |
| CUUUUGUGAGGAUAUCAGUAGUAAAAAAAUAAAAUUACUACUGAGAAGGCACAUGAGGAUCACCCAUGUUCCUC [EX4 344: Super Stable 44] (Eterna round: R96, puzzle: Exclusion 4) | 343 | 42.4 | 36.3 |  |  |  |
